Reference: the RNAGym collection of RNA variant scans (doi:10.1073/pnas.2313332121)
This sample holds only a part of the variants without activity.

B1: TPR 5TU (parent)
chain: GGAUCUUCUCGAUCUAACAAAAAAGACAAAUCUGCCACAAAGCUUGAGAGCAUCUUCGGAUGCAGAGGCGGCAGCCUUCGGUGGCGCGAUAGCGCCAACGUUCUCAACUAUGACACGCAAAACGCGUGCUCCGUUGAAUGGAGUUUAUCAUG

Variants of: B1
Assay: polymerase ribozyme fitness, log enrichment relative to wild type (log ratio); higher = more active; in vitro selection for triplet polymerase activity
Outline: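 Mutant libraries for each subunit of a heterodimeric triplet polymerase ribozyme were made by PCR and then transcribed. Each library underwent one round of in vitro selection in triplicate: annealing with a biotinylated primer, the partner subunit and triplets, frozen incubation at −7 °C, gel excision of extended constructs, streptavidin-bead capture and RT-PCR. Input and output libraries were Illumina-sequenced, and only genotypes with ≥10 input reads and ≥1 read per output were kept. Fitness is the logarithm, base 2, of genotype enrichment over wild-type enrichment, computed from inverse-variance-weighted replicate averages.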

Point of comparison: A40U U56A C85G C114G, “polymerase ribozyme fitness (log ratio)” value -3.79. Against it:
- G42A G88A G124A C125U C129A — lower, ≤ -4.2
- G42C G92A — lower, ≤ -4.2
- A41U C57U C85U — higher, -1.12
- A41C C76U G84U — higher, -2.96
- A41C A142G U144C G152A — higher, -3.09
- A41U G68U C93U A106G — lower, ≤ -4.2
- A40U G42A C63U C114U A119C G141U G143A — lower, ≤ -4.2
- A40U C95U G143U — lower, ≤ -4.2
- A40U A60G — higher, 0.828
- A40U A60U — higher, -0.238
- G42C C54A A64C U77A G83C G126A U145A — lower, ≤ -4.2
- U44A G46C C87U — lower, ≤ -4.2
- A41U U111A — within 0.2 log units, -3.7
- A40G G92U C108U G124A G128U — lower, ≤ -4.2
- A40G C54A G68A G92A — lower, ≤ -4.2
- C43A C87A A89G C93U — lower, ≤ -4.2
- U44A C95U C96G A120C — lower, ≤ -4.2
- G42C A49U C63U — lower, -4.12
- G42C U53A G83C G126U — lower, ≤ -4.2
- A40G U55G U56A G88C — lower, ≤ -4.2
- C43U G46A U90C C95U A106U — lower, ≤ -4.2
- A40C U45A C54U — lower, ≤ -4.2
- A41G G81C U82C — higher, -0.145
- A41U G117C — higher, -0.836
- A41U G136A — higher, 0.0389
- G42A A52C — within 0.2 log units, -3.82
- A40U A41U G46A C57A C87A G92U — higher, 0.0643
- A41U C54U C96A — higher, -2.16
- A41C C57A C99G U104C G126C U144G — higher, -3.09
- G42A U53A U77G A91U A115G U135G — lower, ≤ -4.2
- A40C U109C — higher, -3.47
- A40U G71U C85G — lower, ≤ -4.2
- U44A C51U C76U A106U A110G — lower, ≤ -4.2
- A40U C57U U61A U82G A98C A106U C116U A121U C132U A138C — lower, ≤ -4.2
- G42C A52C A64G G80A C96A C108U A110G — lower, ≤ -4.2
- A40C G59A G71U G94C U127C — lower, ≤ -4.2
- A41G C63U — higher, 0.774
- A41G G42A G92C U111C A113U C125G — lower, ≤ -4.2
- A40C U61A A91G A97U G141U — lower, ≤ -4.2
- A41C A47G — higher, -0.27
- A41C G48C U56A A89C C103U — higher, -2.34
- C43A G80C G94U — lower, ≤ -4.2
- A41U C85G G126A — higher, -2.76
- G42C C95A C99G A107U — lower, ≤ -4.2
- A40C U61A C76A — lower, ≤ -4.2
- G42A G58C C79A C118U A142U — lower, ≤ -4.2
- A40C U90C — lower, -4.09
- G42U A52C C93U — lower, ≤ -4.2
- G42C G83A A106U — lower, ≤ -4.2
- A41U C85U C99A C105A C118G A119C — lower, ≤ -4.2
- A41C C96A U146A — higher, -0.97
- G42A C75G C96G — lower, ≤ -4.2
- A40C U77C C116A C125U — lower, ≤ -4.2
- A40U G50C C57U U82A — higher, -2.79
- C43G G86C A137G — lower, ≤ -4.2
- C43U G86U C125A — lower, ≤ -4.2
- G42U G59U G92U G126A U135A U144A — lower, ≤ -4.2
- A40U G92A A119C A120C U148G — lower, ≤ -4.2
- A41C U55A C93A — higher, -3.32
- G42A G59A G74U C96G A137G — lower, ≤ -4.2
- U44A A52G C85A C118U — lower, ≤ -4.2
- A41G A47C G81C — higher, -0.0928
- A41G U77G C85G C96U G124C — lower, ≤ -4.2
- A40C G126A G128U — lower, -4.14
- A40C U56A G59A C87A A89C G112U A119U G143A — lower, ≤ -4.2
- A40G A41U U53A C123A C125U U134G — within 0.2 log units, -3.73
- G42A C51U A64C G80A U127A — lower, ≤ -4.2
- G42C C51U C103G — lower, ≤ -4.2
- C43G A60C G62A C96U U102G — lower, ≤ -4.2
- A40C G50U C85U — higher, 0.316
- A40G U56A G59U G68A C95A U135A A150U — lower, ≤ -4.2
- G42A G71A A91U A97U G100C — lower, ≤ -4.2
- A40C U45A A66U G83A G88U A97C A122U A138U — lower, ≤ -4.2
- C43U C93G U109G — lower, ≤ -4.2
- A40U A47C C51U U82C C118G — higher, -2.44
- A40C U109C C116U C131U A147U — higher, -2.36
- A40U C57A G58C C79G — within 0.2 log units, -3.81
- A40U C79G G88U A107G C149A — lower, ≤ -4.2
- A41C G46A C57U C95U A115G — higher, -3.25
- A40U U55G C96G — higher, -0.541
- A40C G67C G71C A98G C103A C105G — lower, ≤ -4.2
- A40G C99G — the same, -3.79
- A40C U55G C63U C93U — higher, -0.65
- C43U C132U — lower, ≤ -4.2
- A40U U109A — higher, -1.86
- A41C U53A U135A — higher, -1.07
- A41U A66C G67A C79G C96U A150U — lower, ≤ -4.2
- G42C U53A C99U — lower, ≤ -4.2
- A41C G67C G83A C95G G143A — lower, ≤ -4.2
- A41G C75U C93G — higher, -2.6
- A41U A47U C93G — lower, -4.14
- A41U C69U C87U — higher, -2.75
- C43U C85U G88U C96A C123G G124C C129U G133C U139C — lower, ≤ -4.2
- A41G C57U C85U C116U — higher, 0.221
- A41C U102A — higher, -1.07
- A40C G128U G143U — lower, ≤ -4.2
- G42A G48A A97G A138U — lower, ≤ -4.2
- A41C U56A C87U U135G — lower, ≤ -4.2
- U44A C85G U90C U104G — lower, ≤ -4.2
- A41C C57U U82C G141A — higher, -1.09
- A41G C87A A121G C123U G140A U146C C149G — lower, ≤ -4.2
- G42C A49C — lower, ≤ -4.2
- G42C U55A A60U C87U A115U — lower, ≤ -4.2
- A40G U90A — lower, ≤ -4.2
- G42C C116G A120U A138G G141U G143A — lower, ≤ -4.2
- C43U U56A A66C C75A C85G — lower, ≤ -4.2
- C43G U55C G70A C85A C87G C95U G133U — lower, ≤ -4.2
- G42C A60G A113U G140U — within 0.2 log units, -3.85
- A40U C51U G83A — higher, -0.935
- U44A C54U U82G C87A C123U — lower, ≤ -4.2
- A41C A91G C118G — within 0.2 log units, -3.64
- U44A A49C C93U C123G U130G — lower, ≤ -4.2
- A41G C96A C149U — higher, -0.509
- A41C A47C A60U — higher, -2.01
- A40G A41U — higher, -2.41
- G42A A142C — lower, -4.17
- U44A G50C G84U G88A U139C G152A — lower, ≤ -4.2
- A41G U55G G59A U145A — higher, -0.554
- A40U C114U A121C — higher, -2.44
- C43A G83C U90G G140U — lower, ≤ -4.2
- A41C U56A C57A A115U C116U — higher, -2.62
- A40U C57G A91U A138U — lower, ≤ -4.2
- A41U G65U G141C — lower, ≤ -4.2
- A40U G68C C79U G84A C96A A138C — lower, ≤ -4.2
- A41C A49C C75U C85A C105A A137U A142C G143U — lower, ≤ -4.2
- U44A A52C — within 0.2 log units, -3.94
- A40U G92U A98C C103G A120C U134A — within 0.2 log units, -3.87
- A40U G92A A120C — higher, -2.75
- G42A A47C U77G G92U — lower, ≤ -4.2
- A41C C132A — higher, -2.55
- A41G A89G G92U G100A G117C G133A G143U — lower, ≤ -4.2
- C43G G86A — lower, ≤ -4.2
- A40U C76U — higher, -0.102
- A40G C54G G126A — higher, -3.46
- C43A C69G G92C — lower, ≤ -4.2
- A41C G92U — higher, -1.08
- A41C G86U C123U — higher, -2.13
- U44A C54A C75G G92U U145C — lower, ≤ -4.2
- A40U A64G C93A A98G A107C U130G — lower, ≤ -4.2
- A40U G140U — within 0.2 log units, -3.81
- A40U U61A A122G — higher, -1.1
- C43G G67U G83U C93G C103U C116A — lower, ≤ -4.2
- C43U U78A C85A A115C — lower, ≤ -4.2
- A40U G50U A60C A73G C85U U151G — lower, ≤ -4.2
- A41U G50A A52C C93U G100A A119C — lower, ≤ -4.2
- G42A G83U A97U — lower, ≤ -4.2
- A40G — higher, -1.51
- A40U — higher, 0.097
- A41C A73G U145C — higher, -1.73
- A41G U104G C105U A122C — higher, -1.26
- A40C U44A U102C U139A A142G A147C U148A A150G — lower, ≤ -4.2
- G42A G100U — lower, ≤ -4.2
- G42A A52G G70C G141C — lower, ≤ -4.2
- G42C C43A U55G C57U A66C A137C G141C — lower, ≤ -4.2
- A41C U144C A147U — higher, -0.619
- A40U G80A C87A U127G A147C — lower, ≤ -4.2
- G42A G92C — within 0.2 log units, -3.91
- A40G C118U — higher, -2.18
- A40C U56G A64U C87U G143U — lower, ≤ -4.2
- A41C U135C — higher, -3.55
- C43A C87U G136C — lower, ≤ -4.2
- G42C U55A G92C A115U A150U — lower, ≤ -4.2
- G42A G48U G58U C75G G83A U104G — lower, ≤ -4.2
- A41C C76A G84A A120C — higher, -2.53
- G42A G50A A66U G88A C96G U139C — lower, ≤ -4.2
- C43A A115U C118G — lower, ≤ -4.2
